Data on two molecules can be found in US20130189225A1 (ASSOCIATION INSTITUT DE MYOLOGIE, published 2013).

B2: human galectin 3 binding protein (G3BP), native protein of human serum (other)
chain: VNDGDMRLADGGATNQGRVEIFYRGQWGTVCDNLWDLTDASVVCRALGFENATQALGRAAFGQGSGPIMLDEVQCTGTEASLADCKSLGWLKSNCRHERDAGVVCTNETRSTHTLDLSRELSEALGQIFDSQRGCDLSISVNVQGEDALGFCGHTVILTANLEAQALWKEPGSNVTMSVDAECVPMVRDLLRYFYSRRIDITLSSVKCFHKLASAYGARQLQGYCASLFAILLPQDPSFQMPLDLYAYAVATGDALLEKLCLQFLAWNFEALTQAEAWPSVPTDLLQLLLPRSDLAVPSELALLKAVDTWSWGERASHEEVEGLVEKIRFPMMLPEELFELQFNLSLYWSHEALFQKKTLQALEFHTVPFQLLARYKGLNLTEDTYKPRIYTSPTWSAFVTDSSWSARKSQLVYQSRRGPLVKYSSDYFQAPSDYRYYPYQSFQTPQHPSFLFQDKRVSWSLVYLPTIQSCWNYGFSCSSDELPVLGLTKSGGSDRTIAYENKALMLCEGLFVADVTDFEGWKAAIPSALDTNSSKSTSSFPCPAGHFNGFRTVIRPFYLTNSSGVD
notes: also called hu-G3BP; huG3BP

The target in test [1] is B2. The experiment in a line: surface plasmon resonance imagery, rAAV immobilised on glass prism, hu-G3BP injected.
Test [2] deals with T1, human C-reactive protein (CRP), native protein of human serum (human, UniProt P02741 19-224).
T1 construct: mature; also called human CRP; human homolog of CRP
T1 sequence: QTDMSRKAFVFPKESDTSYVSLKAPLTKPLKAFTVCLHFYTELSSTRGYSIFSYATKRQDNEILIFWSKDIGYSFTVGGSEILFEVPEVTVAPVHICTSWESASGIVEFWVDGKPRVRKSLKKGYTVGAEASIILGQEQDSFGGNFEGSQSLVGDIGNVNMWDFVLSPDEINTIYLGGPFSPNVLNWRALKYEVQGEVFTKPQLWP
The experiment in a line: rAAV-6 immobilised on AVB-Sepharose incubated with human serum; PAGE and Western blot with human CRP specific antibodies.

The target of test [3] is T2, murine G3BP (mouse cyclophilin C-associated protein), native protein of mouse serum (mouse, UniProt Q07797 19-577).
T2 construct: also called G3BP murine protein homolog; CyCAP
T2 sequence: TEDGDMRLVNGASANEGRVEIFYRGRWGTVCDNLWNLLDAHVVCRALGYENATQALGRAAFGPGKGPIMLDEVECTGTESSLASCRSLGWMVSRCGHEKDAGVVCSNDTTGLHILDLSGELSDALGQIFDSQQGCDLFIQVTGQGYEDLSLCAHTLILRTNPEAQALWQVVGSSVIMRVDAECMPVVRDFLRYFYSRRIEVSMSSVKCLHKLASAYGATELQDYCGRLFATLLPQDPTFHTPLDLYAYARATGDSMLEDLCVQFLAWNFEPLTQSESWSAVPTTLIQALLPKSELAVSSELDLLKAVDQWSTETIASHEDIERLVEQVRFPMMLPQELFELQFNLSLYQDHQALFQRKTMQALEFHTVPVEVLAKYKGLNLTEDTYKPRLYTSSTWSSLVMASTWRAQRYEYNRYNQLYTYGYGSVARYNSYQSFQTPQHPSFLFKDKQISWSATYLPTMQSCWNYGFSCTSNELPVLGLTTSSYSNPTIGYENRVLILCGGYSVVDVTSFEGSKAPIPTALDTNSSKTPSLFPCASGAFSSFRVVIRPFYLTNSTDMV
The experiment in a line: AAV6 incubated with seronegative murine serum, ultracentrifugation, 2D gel.

The target of test [4] is rAAV-2 (recombinant adeno-associated virus vector with AAV-2 capsid) (adeno-associated virus serotype 2, UniProt P03135 1-735). The experiment in a line: rAAV immobilised on AVB-Sepharose beads incubated with seronegative human serum; Western blot for G3BP.
rAAV-2 (recombinant adeno-associated virus vector with AAV-2 capsid), sequence (P03135 whole entry): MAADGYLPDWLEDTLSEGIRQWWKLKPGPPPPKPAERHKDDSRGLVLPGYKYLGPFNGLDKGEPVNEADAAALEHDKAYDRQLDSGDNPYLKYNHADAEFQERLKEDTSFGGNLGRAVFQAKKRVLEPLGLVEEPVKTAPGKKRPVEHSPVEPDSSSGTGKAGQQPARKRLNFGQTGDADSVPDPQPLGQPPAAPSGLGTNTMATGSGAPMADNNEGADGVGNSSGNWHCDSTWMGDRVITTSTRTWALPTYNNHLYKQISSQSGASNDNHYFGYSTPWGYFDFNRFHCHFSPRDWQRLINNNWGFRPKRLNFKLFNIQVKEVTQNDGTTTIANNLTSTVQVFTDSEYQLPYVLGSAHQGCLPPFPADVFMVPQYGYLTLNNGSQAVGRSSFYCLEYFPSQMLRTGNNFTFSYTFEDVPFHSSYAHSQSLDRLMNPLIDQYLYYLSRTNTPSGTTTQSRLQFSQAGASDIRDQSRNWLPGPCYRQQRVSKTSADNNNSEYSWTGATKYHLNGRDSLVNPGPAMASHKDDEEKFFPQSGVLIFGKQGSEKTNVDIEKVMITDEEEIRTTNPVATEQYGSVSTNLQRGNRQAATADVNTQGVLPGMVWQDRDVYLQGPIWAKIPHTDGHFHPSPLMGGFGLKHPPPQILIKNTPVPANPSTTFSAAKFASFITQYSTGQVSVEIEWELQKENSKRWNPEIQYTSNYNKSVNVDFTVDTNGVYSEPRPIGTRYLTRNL

B1: rAAV-6 (recombinant adeno-associated virus vector with AAV-6 capsid) (other)
chain: MAADGYLPDWLEDNLSEGIREWWDLKPGAPKPKANQQKQDDGRGLVLPGYKYLGPFNGLDKGEPVNAADAAALEHDKAYDQQLKAGDNPYLRYNHADAEFQERLQEDTSFGGNLGRAVFQAKKRVLEPFGLVEEGAKTAPGKKRPVEQSPQEPDSSSGIGKTGQQPAKKRLNFGQTGDSESVPDPQPLGEPPATPAAVGPTTMASGGGAPMADNNEGADGVGNASGNWHCDSTWLGDRVITTSTRTWALPTYNNHLYKQISSASTGASNDNHYFGYSTPWGYFDFNRFHCHFSPRDWQRLINNNWGFRPKRLNFKLFNIQVKEVTTNDGVTTIANNLTSTVQVFSDSEYQLPYVLGSAHQGCLPPFPADVFMIPQYGYLTLNNGSQAVGRSSFYCLEYFPSQMLRTGNNFTFSYTFEDVPFHSSYAHSQSLDRLMNPLIDQYLYYLNRTQNQSGSAQNKDLLFSRGSPAGMSVQPKNWLPGPCYRQQRVSKTKTDNNNSNFTWTGASKYNLNGRESIINPGTAMASHKDDKDKFFPMSGVMIFGKESAGASNTALDNVMITDEEEIKATNPVATERFGTVAVNLQSSSTDPATGDVHVMGALPGMVWQDRDVYLQGPIWAKIPHTDGHFHPSPLMGGFGLKHPPPQILIKNTPVPANPPAEFSATKFASFITQYSTGQVSVEIEWELQKENSKRWNPEVQYTSNYAKSANVDFTVDNNGLYTEPRPIGTRYLTRPL
In the case of B1, the Ka in test [1] is about 1e+09 M⁻¹. The binding result in test [2] and in test [3] was “no binding” each time.

As to B2, the binding result in test [4] was “no binding”.
